# Experiments:
# [1] = target: guinea pig whole molecule IgG (guinea pig); experiment: SPR; IgG amine coupled to CM5 chip, construct flowed at 750 ug/ml; end-point RU of association phase
# [2] = target: human IgG Fc (human); experiment: as above
# [3] = target: mouse whole molecule IgG (mouse); experiment: as above
# [4] = target: human whole molecule IgG (human); experiment: as above
# [5] = target: rabbit whole molecule IgG (rabbit); experiment: as above
# [6] = target: human IgG Fc (human); experiment: SPR; IgG amine-coupled to CM5 chip, control flowed at 490 ug/ml at the end of the serial flows; end-point RU of association phase
# [7] = target: human whole molecule IgG (human); experiment: as above
# [8] = target: rabbit whole molecule IgG (rabbit); experiment: as above
# [9] = target: human IgG Fc (human); experiment: as above; remark: listed apart in the source
# [10] = target: human whole molecule IgG (human); experiment: as above; remark: listed apart in the source
# [11] = target: rabbit whole molecule IgG (rabbit); experiment: as above; remark: listed apart in the source
# [12] = target: guinea pig whole molecule IgG (guinea pig); experiment: SPR; IgG amine coupled to CM5 chip, control flowed at 490 ug/ml at the start of the serial flows; end-point RU of association phase
# [13] = target: human IgG Fc (human); experiment: as above
# [14] = target: mouse whole molecule IgG (mouse); experiment: as above
# [15] = target: human whole molecule IgG (human); experiment: as above
# [16] = target: rabbit whole molecule IgG (rabbit); experiment: as above
# [17] = target: human IgG Fc (human); experiment: SPR; IgG amine-coupled to CM5 chip, control flowed at 490 ug/ml at the start of the serial flows; end-point RU of association phase
# [18] = target: human whole molecule IgG (human); experiment: as above
# [19] = target: rabbit whole molecule IgG (rabbit); experiment: as above
# [20] = target: human whole molecule IgG (human); experiment: as above; remark: listed apart in the source
# [21] = target: rabbit whole molecule IgG (rabbit); experiment: as above; remark: listed apart in the source
# [22] = target: guinea pig whole molecule IgG (guinea pig); experiment: SPR; IgG amine coupled to CM5 chip, control flowed at 490 ug/ml at the end of the serial flows; end-point RU of association phase
# [23] = target: human IgG Fc (human); experiment: as above
# [24] = target: mouse whole molecule IgG (mouse); experiment: as above
# [25] = target: human whole molecule IgG (human); experiment: as above
# [26] = target: rabbit whole molecule IgG (rabbit); experiment: as above
binder,measurement,setting,value
gE-1t 419 (protein) GTPKTSWRRVSVGEDVSLLPAPGPTGRGPTQKLLWAVEPLDGCGPLHPSWVSLMPPKQVPETVVDAACMRAPVPLAMAYAPPAPSATGGLRTDFVWQERAAVVNRSLVIHGVRETDSGLYTLSVGDIKDPARQVASVVLVVQPAPVPTPPPTPADYDEDDNDEGEDESLAGTPASGTPRLPPPPAPPRSWPSAPEVSHVRGVTVRMETPEAILFSPGETFSTNVSIHAIAHDDQTYSMDVVWLRFDVPTSCAEMRIYESCLYHPQLPECLSPADAPCAASTWTSRLAVRSYAGCSRTNPPPRCSAEAHMEPVPGLAWQAASVNLEFRDASPQHSGLYLCVVYVNDHIHAWGHITISTAAQYRNAVVEQPLPQRGADLAEPTHPHVGAPPHAPPTHGALR,RU Post Association,[1],27 RU
same,RU Post Association,[2],69 RU
same,RU Post Association,[3],4 RU
same,RU Post Association,[4],127 RU
same,RU Post Association,[5],188 RU
gE-1t 411 (protein) GTPKTSWRRVSVGEDVSLLPAPGPTGRGPTQKLLWAVEPLDGCGPLHPSWVSLMPPKQVPETVVDAACMRAPVPLAMAYAPPAPSATGGLRTDFVWQERAAVVNRSLVIHGVRETDSGLYTLSVGDIKDPARQVASVVLVVQPAPVPTPPPTPADYDEDDNDEGEDESLAGTPASGTPRLPPPPAPPRSWPSAPEVSHVRGVTVRMETPEAILFSPGETFSTNVSIHAIAHDDQTYSMDVVWLRFDVPTSCAEMRIYESCLYHPQLPECLSPADAPCAASTWTSRLAVRSYAGCSRTNPPPRCSAEAHMEPVPGLAWQAASVNLEFRDASPQHSGLYLCVVYVNDHIHAWGHITISTAAQYRNAVVEQPLPQRGADLAEPTHPHVGAPPHA,RU Post Association,[6],76 RU
same,RU Post Association,[7],152 RU
same,RU Post Association,[8],228 RU
same,RU Post Association,[9],75 RU
same,RU Post Association,[10],150 RU
same,RU Post Association,[11],221 RU
same,RU Post Association,[12],32 RU
same,RU Post Association,[13],77 RU
same,RU Post Association,[14],4 RU
same,RU Post Association,[15],147 RU
same,RU Post Association,[16],231 RU
same,RU Post Association,[17],80 RU
same,RU Post Association,[18],157 RU
same,RU Post Association,[19],228 RU
same,RU Post Association,[20],145 RU
same,RU Post Association,[21],221 RU
same,RU Post Association,[22],30 RU
same,RU Post Association,[23],72 RU
same,RU Post Association,[24],8 RU
same,RU Post Association,[25],144 RU
same,RU Post Association,[26],223 RU

# — US20220280636A1
